T1: PIF4-NLuc (Arabidopsis, UniProt Q8W2F3 1-430)
T1 sequence (looked up): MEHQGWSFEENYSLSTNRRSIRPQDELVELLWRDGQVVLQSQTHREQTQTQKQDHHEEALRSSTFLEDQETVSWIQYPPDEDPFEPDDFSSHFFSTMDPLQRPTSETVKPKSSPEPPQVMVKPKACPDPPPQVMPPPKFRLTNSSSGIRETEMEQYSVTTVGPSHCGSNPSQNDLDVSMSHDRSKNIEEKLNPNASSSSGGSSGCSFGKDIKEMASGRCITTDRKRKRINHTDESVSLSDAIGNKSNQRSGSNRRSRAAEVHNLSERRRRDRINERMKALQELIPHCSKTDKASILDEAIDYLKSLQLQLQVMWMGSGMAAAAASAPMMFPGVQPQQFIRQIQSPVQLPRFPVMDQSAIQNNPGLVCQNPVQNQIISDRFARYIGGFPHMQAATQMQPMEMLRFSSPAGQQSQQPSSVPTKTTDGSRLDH

B1: MBP-HSFA1d-S2 (oligomerization domain HR-A/B and NLS, amino acids 145 to 260) (domain or fragment, Arabidopsis, UniProt Q9LQM7 145-260, looked up)
chain: GQNSSVSACVEVGKFGLEEEVERLKRDKNVLMQELVRLRQQQQSTDNQLQTMVQRLQGMENRQQQLMSFLAKAVQSPHFLSQFLQQQNQQNESNRRISDTSKKRRFKRDGIVRNND
B2: MBP-HSFA1d-S1 (DNA binding domain, amino acids 1 to 144) (domain or fragment)
chain: not shown
B3: HIS-tagged PIF4 (natural protein, Arabidopsis, UniProt Q8W2F3 1-430, looked up)
chain: T1 sequence (looked up)
B4: HSFA1d-CLuc (natural protein)
chain: not shown

Columns and labels:
[1] = molecular target: B3; experiment: pull-down
[2] = molecular target: MBP-tagged HSFA1d (Arabidopsis, UniProt Q9LQM7 1-485); experiment: pull-down
MBP-tagged HSFA1d, sequence (Q9LQM7 whole entry): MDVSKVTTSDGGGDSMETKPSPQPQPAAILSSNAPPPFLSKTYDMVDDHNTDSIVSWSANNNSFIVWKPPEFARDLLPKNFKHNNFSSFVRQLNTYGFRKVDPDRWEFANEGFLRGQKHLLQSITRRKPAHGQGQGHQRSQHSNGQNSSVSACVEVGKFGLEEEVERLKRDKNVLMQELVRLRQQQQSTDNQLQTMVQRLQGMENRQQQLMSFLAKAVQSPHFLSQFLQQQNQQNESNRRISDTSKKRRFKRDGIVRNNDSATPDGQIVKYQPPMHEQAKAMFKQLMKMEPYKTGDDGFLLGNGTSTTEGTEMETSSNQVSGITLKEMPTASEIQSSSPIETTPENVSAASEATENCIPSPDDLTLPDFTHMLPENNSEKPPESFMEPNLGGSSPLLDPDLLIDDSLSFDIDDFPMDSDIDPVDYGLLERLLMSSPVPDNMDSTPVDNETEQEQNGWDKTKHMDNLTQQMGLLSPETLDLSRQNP

[3] = molecular target: T1, PIF4-NLuc; experiment: split reporter

B1
binding result [1]: binds

B2
binding result [1]: binds

B3
binding result [2]: binds

B4
fold increase of luciferase activity at 28°C against 21°C [3]: ~60 fold

From article PMC10624354 (Science Advances, 2023)
